The values that follow are results of earlier work, collected in paper PMC9900175.

This series deals with CD200R (Homo sapiens) (UniProt Q8TD46).
Chain of UniProt Q8TD46 (Q8TD46 25-265): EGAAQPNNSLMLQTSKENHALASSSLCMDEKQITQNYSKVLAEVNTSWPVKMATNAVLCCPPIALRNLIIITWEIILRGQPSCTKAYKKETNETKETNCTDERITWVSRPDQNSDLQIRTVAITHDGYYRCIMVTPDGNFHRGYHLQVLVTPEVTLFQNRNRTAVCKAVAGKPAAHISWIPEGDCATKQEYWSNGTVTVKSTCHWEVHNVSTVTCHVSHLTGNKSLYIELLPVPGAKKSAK

A word on the Kd: it is the free concentration of one partner at which half of the binding sites on the other are occupied at equilibrium, for simple one-to-one binding. As to CD200 (from UniProt P41217), the Kd is 0.5 µM.
